Assay [1] has as its target carbohydrate containing epitope on CD43 and/or CEA as expressed on SU.86.86 pancreatic cancer cells. Kind of assay: flow cytometry on SU.86.86 cells, secondary antibody alone at 1 ug/ml. (Flow cytometry measures light scatter and fluorescence of single cells or particles in a stream.)
The target in assay [2] is carbohydrate containing epitope on CD43 and/or CEA as expressed on COLO 205 colorectal cancer cells. In words: flow cytometry on Colo 205 cells, secondary antibody alone.
For assay [3] the target is unchanged. In words: flow cytometry on Colo 205 cells, antibody at 1 ug/ml, R-PE secondary.
The target is the same in assay [4]. Kind of assay: flow cytometry on Colo 205 cells, control antibody.
In assay [5] the target is carbohydrate containing epitope on CD43 and/or CEA as expressed on SU.86.86 pancreatic cancer cells. In words: cell-based or functional assay.
Assay [6] has the same target. Kind of assay: flow cytometry on SU.86.86 cells, antibody at 1 ug/ml, R-PE anti-mouse secondary.
The target in assay [7] is carbohydrate containing epitope on CD43 and/or CEA as expressed on COLO 205 colorectal cancer cells. Kind of assay: flow cytometry on Colo 205 cells, antibody at 1 ug/ml, R-PE anti-mouse secondary.

Molecule “R-PE-conjugated goat F(ab')2 anti-mouse IgG(H+L), Southern Biotech, Cat. No.1032-09 (antibody)” came in with an MFI in assay [1] of 6 MFI. Moreover, the background signal (MFI) in assay [2] came out at 3 MFI.
Molecule “R-PE-conjugated goat anti-human IgG, Southern Biotech, Cat. No.2040-09 (antibody)” displayed a background signal (MFI) in assay [2] of 3 MFI.
In turn, hIgG1 (control antibody of Table 10) had a Median Fluorescence Intensity (MFI) in assay [3] of 6 MFI.
Molecule human IgG (control antibody of FIG. 3) came in with a background signal (MFI) in assay [4] of 5 MFI.
For mIgG3 (control antibody of Table 10), the Median Fluorescence Intensity (MFI) in assay [3] stood at 7 MFI.
mouse IgG (control antibody of FIG. 3) showed a background signal (MFI) in assay [4] of 4 MFI.

B1: murine 5F1 antibody (m5F1) (antibody, V domains shown)
VH: EVQLQQSGPELVKPGASVRMSCTASGYTFTSYVMHWIKQKPGQGLDWIGYINPYNGGTQYNEKFKGKATLTSDKSSSTAYMELSSLTSEDSAVYYCARRTFPYYFDYWGQGTTLTVSS
VL: DVLMTQTPLSLPVSLGDQASISCRSSQSILHSNGNTYLEWYLQKPGQSPKLLIYKVSNRFSGVPDRFSGSGSGTDFTLKISRVEAEDLGVYYCFQGSHAPLTFGAGTKLELK
In assay [5], B1 returned a % of Annexin V and/or PI positive cells, SU.86.86 cells, 6 h, m5F1 at 2 ug/ml of 60%; a % of Annexin V and/or PI positive cells, SU.86.86 cells, 6 h, m5F1 at 4 ug/ml of 72%; a % of Annexin V and/or PI positive cells, SU.86.86 cells, 6 h, m5F1 at 8 ug/ml of 78%; a % of Annexin V and/or PI positive cells, SU.86.86 cells, 6 h, m5F1 at 16 ug/ml of 89%. The molecule also gave a % of Annexin V and/or PI positive cells, SU.86.86 cells, 6 h, m5F1 at 32 ug/ml in assay [5] of 91%. In assay [6], the MFI is 131 MFI. Also, the Median Fluorescence Intensity (MFI) in assay [7] was found to be 800 MFI.

The values above are taken from patent US20110280888A1.
